Source: US11248023B2 (NEURACLE SCIENCE CO., LTD., priority 2015, dated 2022)
Square brackets hold non-standard residues; d marks the D form. Ends that are not written are not given here. Peptide text beside a SMILES is read from it. * marks the point of attachment. Fmoc = O=C(OCC1c2ccccc2-c2ccccc21)*

Tests used:
[1] = target: T1, GALR2 (Homo sapiens, UniProt O43603); assay: SRE-luc assay in HEK293-Gqi cells expressing GALR2; format: cell-based; conditions: for potency toward GALR2: SRE-luc, HEK293-Gqi cells, compared with spexin
T1 construct: expressed in transfected cells
T1 sequence (O43603 1-387): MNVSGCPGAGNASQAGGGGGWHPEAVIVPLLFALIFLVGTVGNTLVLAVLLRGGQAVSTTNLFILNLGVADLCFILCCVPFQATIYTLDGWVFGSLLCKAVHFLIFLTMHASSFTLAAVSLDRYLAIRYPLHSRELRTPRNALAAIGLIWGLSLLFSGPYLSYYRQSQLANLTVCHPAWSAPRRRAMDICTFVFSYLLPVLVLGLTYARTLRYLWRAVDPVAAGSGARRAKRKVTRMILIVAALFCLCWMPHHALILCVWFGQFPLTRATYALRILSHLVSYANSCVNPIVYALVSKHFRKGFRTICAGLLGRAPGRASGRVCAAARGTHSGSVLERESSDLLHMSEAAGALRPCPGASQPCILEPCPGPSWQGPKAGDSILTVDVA
Text: (§1) The HEK293-Gqi stable cell line is a cell line in which the C-terminus of Gq is substituted with 3 amino acids of G to convert the signals of G to Gq signaling pathways. […] GALR subtypes 1 and 3 induce inhibitory G-coupled signaling, while GALR subtype 2 triggers stimulatory Gq-coupled signaling. This difference explains the use of the HEK293-Gqi stable cell line in which the C-terminus of Gq is substituted with 3 amino acids of G to convert the signals of Gi to Gq signaling pathways.
(§2) GALR subtypes 1 and 3 induce inhibitory G-coupled signaling, while GALR subtype 2 triggers stimulatory Gq-coupled signaling. This difference explains the use of the HEK293-Gqi stable cell line in which the C-terminus of Gq is substituted with 3 amino acids of G to convert the signals of G to Gq signaling pathways. The activities of the receptors were measured using an SRE-luc assay system designed to express luciferase (luc) by serum responsive element (SRE) promoters. Light caused by a reaction between expressed luciferase and luciferin as a substrate was detected using a luminometer so that receptor subtype-specific or ligand-specific cellular activities were observed. One day after HEK293-Gqi cells were seeded in 48-well plates at a density of 2×10^4 cells/well, plasmid DNA and SRE-luc plasmid DNA, which encode GALR2 and GALR3, respectively, were mixed in a ratio of 1:1 (75 ng+75 ng)/well, and treated with Effectene reagent (2 μl/well). After 3 h, media were replaced with DMEM media supplemented with 10% FBS. After 24 h, the DMEM media were replaced with FBS-free DMEM media. After 16 h, each constructed spexin-based mutant peptide was further incubated at 37° C. for 6 h. After this stage was finished, cells were washed with PBS and lysed by the addition of 100 μl of lysis buffer (0.1% triton X-100, 0.2M Tris, pH 8.0) at room temperature for 20 min. The luciferase activity was determined using a synergy 2 Multi-mode microplate reader (BioTek, Winooski, Vt., USA) with automatic injection of a luciferin solution (0.5 M MgCl2, 0.1 M ATP, 0.05 M D-luciferin, 1 M KH2PO4, pH 7.8).

[2] = target: T2, GALR3 (Homo sapiens, UniProt O60755); assay: SRE-luc assay in HEK293-Gqi cells expressing GALR3; format: cell-based; conditions: compared with spexin
T2 construct: expressed in transfected cells
T2 sequence (O60755 1-368): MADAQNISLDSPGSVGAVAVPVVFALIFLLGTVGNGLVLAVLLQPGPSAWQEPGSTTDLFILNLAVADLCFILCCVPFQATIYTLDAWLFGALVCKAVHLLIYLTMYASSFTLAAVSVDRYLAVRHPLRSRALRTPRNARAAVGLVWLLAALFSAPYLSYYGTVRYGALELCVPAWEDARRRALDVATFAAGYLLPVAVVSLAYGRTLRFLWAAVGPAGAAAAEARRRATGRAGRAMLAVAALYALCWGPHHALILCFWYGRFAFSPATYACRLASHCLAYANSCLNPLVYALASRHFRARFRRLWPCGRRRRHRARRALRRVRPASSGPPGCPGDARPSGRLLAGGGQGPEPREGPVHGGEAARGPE
Text: as §1, §2

[3] = Stability in 100% fetal bovine serum, residual potency via IP3 production in GALR2-expressing cells; conditions: 37° C.; for stability in serum (100% FBS): 0-72 h, IP3 production in GALR2-expressing cells
Experimental: The stability of the spexin-based mutant peptides was investigated. To this end, first, each modified mutant peptide at an initial concentration 10 μM was allowed to react in 100% fetal bovine serum (FBS) at 37° C. for 0, 3, 6, 12, 24, 48, and 72 h. Thereafter, the potencies of the mutant peptide toward GALR2 were determined via inositol 1,4,5-triphosphate (IP3) production in GALR2-expressing cells. For the IP3 assay, cells were seeded in 12-well plates at a density of 2.5×10^5 cells/well and then the next day, cells were treated with a mixture of 1 μg of GALR2-encoding plasmid DNA and Lipofectamine 2000 (Invitrogen). On day following treatment, cells were incubated in M199 media containing 1% FBS, 1% L-glutamine, 1% antibiotic, and myo-^3H inositol 1 μCi/well for 20 h to radioactively label inositol phosphate. After this stage was finished, cells were allowed to react in buffer A (140 mM NaCl, 20 mM Hepes, 4 mM KCl, 8 mM D-glucose, 1 mM MgCl2, 1 mM CaCl2), 1 mg/ml free fatty acid bovine serum albumin, and 10 mM LiCl at pH 7.2) for 30 min. After the mutant peptide was allowed to react in 100% FBS, cells were treated with the mutant peptide for 40 min at 37° C. Media was removed, and reactions were terminated by addition of 1 ml of 10 mM cold formic acid to each well. The plates were allowed to stand at 4° C. for 30 min. Then, the resulting extracts were transferred to 6-mL plastic tubes containing 500 μl AG1-8X anion exchange columns. The tubes were gently mixed with a vortexer, and the supernatants were removed from the labeled mixture. Two washes with 1 ml of triple-distilled water were performed followed by two additional washes with 60 mM ammonium formate/5 mM sodium tetraborate. The radioactively labeled mixture was eluted from the column with 1 ml of 1 M ammonium formate/0.1 M formic acid (1 mL), and 800 μl from the elution were taken from each tube and transferred into scintillation vials. Then, 2 ml of scintillation cocktail solution (Ultima Gold™, Perkin Elmer, Waltham Mass., USA) was added to each sample. The radioactivity of the mixture solution of the radioactively labeled mixture and the scintillation cocktail solution was measured using a TRI carb 2100TR liquid scintillation analyzer (Packard).

[4] = system: POMC neurons; assay: Signaling, POMC expression and α-MSH in cultured POMC neurons (Western blotting, mRNA); format: cell-based; conditions: Fmoc sextuple mutant 1 μM, insulin 10 nM
Experimental: An increase in the potency of appetite-regulating brain neurons by administration of the GALR2 agonist was determined by immunohistochemistry (IHC). […] POMC neurons known to regulate appetite in the arcuate nucleus were cultured in vitro, treated with the Fmoc sextuple mutant (1 μM) and 10 nM insulin, washed with PBS, and lysed by the addition of 100 μl of lysis buffer (0.1% triton X-100, 0.2M Tris, pH 8.0) at room temperature for 20 min.
Proteins were extracted from cells and analyzed by Western blotting. […] POMC neurons were treated the GALR2 agonist and mRNA was then extracted. Increases in the number of the POMC neurons and the level of α-MSH were observed (FIGS. 11B to 11E).

Row | potency toward GALR3 [2] | Compound | potency toward GALR2 [1] | further results
1 | decreased potencies | [Gly^8]: spexin-based mutant peptide, leucine at position 8 replaced with glycine, SEQ ID NO: 26 (NWTPQAMGYLKGAQ; [G8]-SPX) | decreased potencies | 
2 | decreased potency toward GALR3 | [Asn^5]: spexin-based single mutant peptide, asparagine at position 5, SEQ ID NO: 23 (NWTPNAMLYLKGAQ; [N5]-SPX) | maintained its potency toward GALR2 without a substantial difference | 
3 | decreased potency toward GALR3 | [Pro^13]: spexin-based mutant peptide, proline at position 13, SEQ ID NO: 39 (NWTPQAMLYLKGPQ; [P13]-SPX) | maintained its potency toward GALR2 without a substantial difference | 
4 | decreased potency toward GALR3 | [Phe^11]: spexin-based mutant peptide, phenylalanine at position 11, SEQ ID NO: 31 (NWTPQAMLYLFGAQ; [F11]-SPX) | maintained its potency toward GALR2 without a substantial difference | 
5 | decreased potency toward GALR3 | [Leu^11]: spexin-based mutant peptide, leucine at position 11, SEQ ID NO: 32 (NWTPQAMLYLLGAQ; [L11]-SPX) |  | 

Second part, the compound before the results:

Row | Compound | potency toward GALR3 [2] | potency toward GALR2 [1] | further results
6 | Fmoc: spexin modified with Fmoc at position 1, SEQ ID NO: 45 | no influence | no influence | 
7 | CSCC[C@H](NC(=O)[C@H](C)NC(=O)[C@H](CCC(N)=O)NC(=O)[C@@H]1CCCN1C(=O)[C@@H](NC(=O)[C@H](Cc1c[nH]c2ccccc12)NC(=O)[C@@H](N)CC(N)=O)[C@@H](C)O)C(=O)N[C@@H](CC(C)C)C(=O)N[C@@H](Cc1ccc(O)cc1)C(=O)N[C@@H](CC(C)C)C(=O)N[C@@H](CCCCN)C(=O)NCC(=O)N[C@@H](C)C(=O)N[C@@H](CCC(N)=O)C(N)=O [spexin, reference compound] |  |  | potency toward GALR2 (IP3 production) remaining after reaction in serum ([3]; 100% FBS, initial 10 μM, within 12 h): ≤ 80%
8 | [Gly′]: spexin-based mutant peptide, Asn1 replaced with glycine, SEQ ID NO: 12 (GWTPQAMLYLKGAQ; [G1]-SPX) | maintained their potencies toward both receptors without differences from those of spexin | maintained their potencies toward both receptors without differences from those of spexin | 
9 | [Leu^4]: spexin-based mutant peptide, leucine at position 4, SEQ ID NO: 20 (NWTLQAMLYLKGAQ; [L4]-SPX) | maintained their potencies toward both receptors without differences from those of spexin | maintained their potencies toward both receptors without differences from those of spexin | 
10 | CC(C)C[C@H](NC(=O)[C@H](C)NC(=O)[C@H](C)NC(=O)[C@H](CC(N)=O)NC(=O)[C@@H](C)NC(=O)[C@@H](NC(=O)[C@H](Cc1c[nH]c2ccccc12)NC(=O)[C@H](CC(N)=O)NC(=O)OCC1c2ccccc2-c2ccccc21)[C@@H](C)O)C(=O)N[C@@H](Cc1ccc(O)cc1)C(=O)N[C@@H](CC(C)C)C(=O)N[C@@H](Cc1ccccc1)C(=O)NCC(=O)N1CCC[C@H]1C(=O)N[C@H](CCC(N)=O)C(N)=O [Fmoc-se] (Fmoc-NWT[dA]NAALYLFGP[dQ]-NH2) |  |  | specificity for GALR2 ([1]; GALR2 versus GALR3): specificity for GALR2; AKT phosphorylation [4]: only the ERK pathway was phosphorylated; ERK phosphorylation [4]: phosphorylated; stability in serum (100% FBS) [3]: increased stability
11 | NWTPNAALYLFGPQ-NH2 (C-terminus assumed) [Qu] |  |  | stability in serum (100% FBS) [3]: rapidly degraded compared to the wild-type spexin
12 | alanine | decreased potency toward GALR3 | maintained its potency toward GALR2 without a substantial difference | 
13 | NC(=O)NCCC[C@H](N)C(=O)O [Cit] | no influence | no influence | 
14 | pQ: spexin with Asn1 replaced with pyroglutamate, SEQ ID NO: 10 | no influence | no influence | 
15 | insulin [reference compound] |  |  | AKT phosphorylation [4]: phosphorylated; ERK phosphorylation [4]: phosphorylated
16 | [dN^1]: spexin-based mutant peptide, Asn1 replaced with D-amino acid, SEQ ID NO: 9 | slightly increased the potency | slightly increased the potency | 
